This is an account of results in patent US20180162938A1 (GANYMED PHARMACEUTICALS, published 2018).

In assay [1] the target is CLDN6 SNP (single nucleotide polymorphism) variant I143V (human) (UniProt P56747). The assay can be described thus: flow cytometry, HEK293T transiently co-transfected with the claudin and a fluorescence reporter; positive control, by the legend MAB3656; other quadrants printed: Q1 47,20, Q3 20,26, Q4 0,33.
Assay [2] concerns the target T1, human CLDN6 (claudin 6), full length (human, UniProt P56747 1-220).
T1 construct: Expressed untagged from vector p3953 in HEK293T, HEK293 and CHO-K1 cells; endogenous in NEC8 and OV90 cells; In the Western blots it stood in denatured cell lysate; also called wild-type CLDN6
T1 sequence: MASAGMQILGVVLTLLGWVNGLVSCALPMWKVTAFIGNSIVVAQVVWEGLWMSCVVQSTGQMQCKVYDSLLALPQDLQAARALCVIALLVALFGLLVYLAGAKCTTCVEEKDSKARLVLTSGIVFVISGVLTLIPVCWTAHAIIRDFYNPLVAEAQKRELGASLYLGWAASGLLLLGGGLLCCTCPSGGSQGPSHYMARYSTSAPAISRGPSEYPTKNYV
The assay can be described thus: flow cytometry, HEK293T transiently co-transfected with the claudin and a fluorescence reporter; positive control, by the legend MAB3656; other quadrants printed: Q1 58,39, Q3 18,6…, Q4 0,13. Background: A flow cytometer gives signals particle by particle.

Assay [3] concerns the target human CLDN3 (claudin 3) (human) (UniProt O15551). Kind of assay: flow cytometry, HEK293T transiently co-transfected with the claudin and a fluorescence reporter; positive control, by the legend MAB4620; other quadrants printed: Q1 37,91, Q3 29,94, Q4 0,76.
For assay [4], the target named is T1, human CLDN6 (claudin 6), full length. The assay can be described thus: flow cytometry, HEK293T transiently co-transfected with the claudin and a fluorescence reporter; other quadrants printed: Q1 0,09, Q3 75,0…, Q4 24,73.
Assay [5] concerns the target CLDN6 SNP (single nucleotide polymorphism) variant I143V (human) (UniProt P56747). The assay can be described thus: flow cytometry, HEK293T transiently co-transfected with the claudin and a fluorescence reporter; other quadrants printed: Q1 0,18, Q3 64,8…, Q4 34,5….
In assay [6] the target is human CLDN3 (claudin 3) (human) (UniProt O15551). Kind of assay: flow cytometry, HEK293T transiently co-transfected with the claudin and a fluorescence reporter; other quadrants printed: Q1 0,32, Q3 63,10, Q4 36,2….
For assay [7], the target named is human CLDN4 (claudin 4) (human) (UniProt O14493). Kind of assay: flow cytometry, HEK293T transiently co-transfected with the claudin and a fluorescence reporter; other quadrants printed: Q1 0,47, Q3 51,89, Q4 46,45.
Assay [8] addresses human CLDN9 (claudin 9) (human) (UniProt O95484). The assay can be described thus: flow cytometry, HEK293T transiently co-transfected with the claudin and a fluorescence reporter; other quadrants printed: Q1 0,65, Q3 53,91, Q4 44,03.
Assay [9] has as its target T1, human CLDN6 (claudin 6), full length. The assay can be described thus: flow cytometry saturation binding (median fluorescence), HEK293 cells stably expressing human CLDN6.

Sequence of human CLDN3 (claudin 3) (human) (O15551 whole entry): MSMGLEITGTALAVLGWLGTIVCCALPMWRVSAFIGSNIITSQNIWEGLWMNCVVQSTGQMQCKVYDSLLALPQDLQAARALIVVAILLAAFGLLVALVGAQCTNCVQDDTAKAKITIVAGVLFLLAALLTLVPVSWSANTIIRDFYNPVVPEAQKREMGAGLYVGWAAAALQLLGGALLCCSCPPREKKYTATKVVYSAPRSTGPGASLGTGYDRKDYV
Sequence of human CLDN4 (claudin 4) (human) (O14493 whole entry): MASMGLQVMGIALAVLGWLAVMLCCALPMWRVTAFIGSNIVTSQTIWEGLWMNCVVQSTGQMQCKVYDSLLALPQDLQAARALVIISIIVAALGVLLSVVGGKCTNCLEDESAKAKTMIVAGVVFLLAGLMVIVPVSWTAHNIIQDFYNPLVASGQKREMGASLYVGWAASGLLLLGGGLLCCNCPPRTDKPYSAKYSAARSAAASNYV
Sequence of human CLDN9 (claudin 9) (human) (O95484 whole entry): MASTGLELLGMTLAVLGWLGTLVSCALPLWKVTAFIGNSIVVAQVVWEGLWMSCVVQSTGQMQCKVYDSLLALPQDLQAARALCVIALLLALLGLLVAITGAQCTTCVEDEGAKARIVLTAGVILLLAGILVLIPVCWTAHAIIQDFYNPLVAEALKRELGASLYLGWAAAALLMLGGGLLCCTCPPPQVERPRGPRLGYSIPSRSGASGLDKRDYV

Turning to “mouse anti-CLDN6 IgG2b (R&D Systems, MAB3656) (antibody)”, the percent of events in Q2 (reporter-positive, antibody-positive) in assay [1] was 32.2; in [2], 22.8.

In assay [3], “mouse anti-CLDN3 IgG2a (R&D Systems, MAB4620) (antibody)” returned a percent of events in Q2 (reporter-positive, antibody-positive) of 31.4.

As for Isotype (antibody), the percent of events in Q2 (reporter-positive, antibody-positive) in assay [4] was 0.12; in assay [5] it was 0.44; in assay [6] it was 0.37; in [7], 1.18; in assay [8], 1.42.

B1: murine monoclonal antibody muMAB 67A (antibody, V domains shown)
VH: EVQLQQSGPELVKPGASMKISCKASGYSFTGYTMNWVKQSHGKNLEWIGLINPYNGGIIYNQKFKGKATLTVDKSSSTAYMELLSLTSEDSAVFYCARDFGYVLDYWGQGTTLTVSS
VL: QIVLTQSPAIMSASPGEKVTITCSASSSVSYMHWFQQKPGTSPKLWIYSTSNLASGVPARFSGSGSGTSYSLTISRVAAEDAATYYCQQRSTYPPWTFGGGTKLEIK
The EC50 (read off the curve) is the midpoint of the concentration-response curve. High values mean weaker potency, low ones greater potency. Take B1: the “EC50 (read off the curve)” value in [9] was about 0.4 µg/mL.
